Among the data in patent publication US7083949 are inhibition of IL-6-dependent proliferation of XG-1 cells (MTT) (fold molar excess over IL-6) and percent of initial 125I-IL-6 counts still bound after three days values, retold here.

A value given as a limit tells only on which side of the number the result lay.

Test [1] concerns the target human IL-6 (human) (UniProt P05231). The test is described as follows: cell-based or functional assay.
Test [2] shares this target. Description: 20 pM 125I-IL-6 preincubated with 500 pM mAb B-E8 for 20 hours, chase with 20 nM unlabelled IL-6, Protein G-Sepharose precipitation.

human IL-6 (human), sequence (P05231 30-212 limits assumed): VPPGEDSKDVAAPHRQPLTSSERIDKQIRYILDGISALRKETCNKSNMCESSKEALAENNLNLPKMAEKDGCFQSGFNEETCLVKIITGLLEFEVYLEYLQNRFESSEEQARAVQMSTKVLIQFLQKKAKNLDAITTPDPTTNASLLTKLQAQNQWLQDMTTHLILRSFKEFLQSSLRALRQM

B1: anti-IL-6 monoclonal neutralizing antibody B-E8 (antibody, from another filing, V domains shown)
VH: QVTLKESGPGILKPSQTLSLTCSFSGFSLSTSGMGVGWIRQPSGKGLEWLAHIWWDDDKYYNPSLKSQLTISKDTSRNQVFLKITSVDTADTATYYCARSYDDYLYYALDYWGQGTSVTVSS
VL: DIVMTQSPATLSVTPGDRVSLSCRASQSISDYLHWYQQKSHESPRLLIKSVSQSISGIPSRFSGSGSGSDFTLSINSVEPEDVGVYYCQNGHSFPLTFGAGTKLELK
B1: the inhibition of IL-6-dependent proliferation of XG-1 cells (MTT) (fold molar excess over IL-6) in the test with human IL-6 (human) [1] was 10. In the test with human IL-6 (human) [2], this molecule displayed a percent of initial 125I-IL-6 counts still bound after three days of less than 5%.
